First the molecules themselves.
T1: recombinant human IL-23R/Fc chimera (R&D Systems) (human, UniProt Q5VWK5 24-355)
T1 construct: Bought; also called rhIL23RFc
T1 sequence (looked up): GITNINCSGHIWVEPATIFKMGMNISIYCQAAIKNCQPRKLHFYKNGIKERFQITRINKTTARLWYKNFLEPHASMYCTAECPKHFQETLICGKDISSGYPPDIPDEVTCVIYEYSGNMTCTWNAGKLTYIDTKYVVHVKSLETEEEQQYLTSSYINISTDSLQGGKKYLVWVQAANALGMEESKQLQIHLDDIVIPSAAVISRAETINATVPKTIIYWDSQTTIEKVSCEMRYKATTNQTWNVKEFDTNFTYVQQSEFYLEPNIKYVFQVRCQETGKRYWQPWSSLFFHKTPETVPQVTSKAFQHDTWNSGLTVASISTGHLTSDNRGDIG

B1: 001-69.4G8 ATRIMER complex, mammalian-cell produced (designed binder, not shown: small tags and cut ends)
chain: EPPTQKPKKIVNAKKDVVNTKMFEELKSRLDTLAQEVALLKEQQALQTVCLKGTKVHMKCFLAFTQTKTFHEASEDCISRGGTLSTPQTGSENDALYEYLRQSVGNEAEIWLGLNGSRRSGVWVDMTGARIAYKNWETEITAQPDGGFGVFGENCAVLSGAANGKWFDKRCRDQLPYICQFGIV
modifications: Homotrimer of this chain (ATRIMER complex); produced in HEK293 cells, glycosylation possible.
notes: Mammalian-cell produced material; also called 4G8 m; 4G8 TN m
B2: 056-41.B9B ATRIMER complex (designed binder)
chain: EPPTQKPKKIVNAKKDVVNTKMFEELKSRLDTLAQEVALLKEQQALQTVCLKGTKVHMKCFLAFTQTKTFHEASEDCISRGGTLSTPQTGSENDALYEYLRQSVGNEAEIWLGLNAPPDLGLWVDMTGARIAYKNWETEITAQPDGGWGVWGENCAVLSGAANGKWFDKRCRDQLPYICQFGIV
notes: not shown: C-terminal tag: His/Myc (pANA4) or HA-StrepII (pANA10)
B3: 001-87.A4A ATRIMER complex (designed binder)
chain: EPPTQKPKKIVNAKKDVVNTKMFEELKSRLDTLAQEVALLKEQQALQTVCLKGTKVHMKCFLAFTQTKTFHEASEDCISRGGTLSTPQTGSENDALYEYLRQSVGNEAEIWLGLNWTLAKNLWVDMTGARIAYKNWETEITAQPDGGLFGRGENCAVLSGAANGKWFDKRCRDQLPYICQFGIV
notes: as for B2
B4: 001-89.C3C ATRIMER complex (designed binder)
chain: EPPTQKPKKIVNAKKDVVNTKMFEELKSRLDTLAQEVALLKEQQALQTVCLKGTKVHMKCFLAFTQTKTFHEASEDCISRGGTLSTPQTGSENDALYEYLRQSVGNEAEIWLGLNANRRRTMWVDMTGARIAYKNWETEITAQPDGGMGVWGENCAVLSGAANGKWFDKRCRDQLPYICQFGIV
notes: as for B2
B5: 001-87.A5F ATRIMER complex (designed binder)
chain: EPPTQKPKKIVNAKKDVVNTKMFEELKSRLDTLAQEVALLKEQQALQTVCLKGTKVHMKCFLAFTQTKTFHEASEDCISRGGTLSTPQTGSENDALYEYLRQSVGNEAEIWLGLNGSVRSATWVDMTGARIAYKNWETEITAQPDGGFGYFGENCAVLSGAANGKWFDKRCRDQLPYICQFGIV
modifications: Homotrimer of this chain (ATRIMER complex).
notes: also called Atrimer A5F; not shown: A possible extra N-terminal Ser from the ompA junction is left out
B6: 056-41.B12F ATRIMER complex (designed binder)
chain: EPPTQKPKKIVNAKKDVVNTKMFEELKSRLDTLAQEVALLKEQQALQTVCLKGTKVHMKCFLAFTQTKTFHEASEDCISRGGTLSTPQTGSENDALYEYLRQSVGNEAEIWLGLNGSVRSATWVDMTGARIAYKNWETEITAQPDGGYGVFGENCAVLSGAANGKWFDKRCRDQLPYICQFGIV
modifications: Homotrimer of this chain (ATRIMER complex).
notes: not shown: A possible extra N-terminal Ser from the ompA junction is left out
B7: 001-69.4D4 monomeric CTLD (designed binder)
chain: ALQTVCLKGTKVHMKCFLAFTQTKTFHEASEDCISRGGTLSTPQTGSENDALYEYLRQSVGNEAEIWLGLNGSVRGRTWVDMTGARIAYKNWETEITAQPDGGIGVWGENCAVLSGAANGKWFDKRCRDQLPYICQFGIV
notes: C-terminal tag not specified
B8: 001-69.3C2 monomeric CTLD (designed binder)
chain: ALQTVCLKGTKVHMKCFLAFTQTKTFHEASEDCISRGGTLSTPQTGSENDALYEYLRQSVGNEAEIWLGLNTNVTRTLWVDMTGARIAYKNWETEITAQPDGGLGVWGENCAVLSGAANGKWFDKRCRDQLPYICQFGIV
notes: C-terminal tag not specified
B9: 001-87.A4A monomeric CTLD (designed binder)
chain: ALQTVCLKGTKVHMKCFLAFTQTKTFHEASEDCISRGGTLSTPQTGSENDALYEYLRQSVGNEAEIWLGLNWTLAKNLWVDMTGARIAYKNWETEITAQPDGGLFGRGENCAVLSGAANGKWFDKRCRDQLPYICQFGIV
notes: C-terminal tag not specified
B10: 001-87.A5F monomeric CTLD (designed binder, not shown: small tags and cut ends)
chain: ALQTVCLKGTKVHMKCFLAFTQTKTFHEASEDCISRGGTLSTPQTGSENDALYEYLRQSVGNEAEIWLGLNGSVRSATWVDMTGARIAYKNWETEITAQPDGGFGYFGENCAVLSGAANGKWFDKRCRDQLPYICQFGIV
notes: C-terminal tag not specified
B11: 001-87.A9E monomeric CTLD (designed binder)
chain: ALQTVCLKGTKVHMKCFLAFTQTKTFHEASEDCISRGGTLSTPQTGSENDALYEYLRQSVGNEAEIWLGLNGSALTNTWVDMTGARIAYKNWETEITAQPDGGLGYWGENCAVLSGAANGKWFDKRCRDQLPYICQFGIV
notes: C-terminal tag not specified
B12: 001-69.4G8 monomeric CTLD (designed binder)
chain: ALQTVCLKGTKVHMKCFLAFTQTKTFHEASEDCISRGGTLSTPQTGSENDALYEYLRQSVGNEAEIWLGLNGSRRSGVWVDMTGARIAYKNWETEITAQPDGGFGVFGENCAVLSGAANGKWFDKRCRDQLPYICQFGIV
notes: C-terminal tag not specified; not shown: C-terminal tag: 6xHis (pANA1), HA-His (pANA3) or HA-StrepII (pANA12)
B13: 001-87.A8E monomeric CTLD (designed binder)
chain: ALQTVCLKGTKVHMKCFLAFTQTKTFHEASEDCISRGGTLSTPQTGSENDALYEYLRQSVGNEAEIWLGLNANPAQDLWVDMTGARIAYKNWETEITAQPDGGFGVWGENCAVLSGAANGKWFDKRCRDQLPYICQFGIV
notes: C-terminal tag not specified
B14: 001-69.4E5 monomeric CTLD (designed binder)
chain: ALQTVCLKGTKVHMKCFLAFTQTKTFHEASEDCISRGGTLSTPQTGSENDALYEYLRQSVGNEAEIWLGLNGNPSGSVWVDMTGARIAYKNWETEITAQPDGGYGVWGENCAVLSGAANGKWFDKRCRDQLPYICQFGIV
notes: C-terminal tag not specified; not shown: Also the vector's N-terminal AGGGS after the pelB signal
B15: 001-69.4F5 monomeric CTLD (designed binder)
chain: ALQTVCLKGTKVHMKCFLAFTQTKTFHEASEDCISRGGTLSTPQTGSENDALYEYLRQSVGNEAEIWLGLNVLGWRREWVDMTGARIAYKNWETEITAQPDGGLVMPMENCAVLSGAANGKWFDKRCRDQLPYICQFGIV
notes: as for B14

What is called Kd is the equilibrium constant for the complex coming apart. By koff is commonly meant a measure of how fast the partners let go of each other. By kon is commonly meant the second-order rate constant of association.

This assay addresses T1, recombinant human IL-23R/Fc chimera …. Briefly: SPR. The protocol:
A Biacore 3000 biosensor (GE Healthcare) was used to evaluate the interaction of human IL-23R and receptor binders. Immobilization of an anti-human IgG Fc antibody (GE Healthcare) to the CM5 chip (GE Healthcare) was performed using standard amine coupling chemistry, and this modified surface was used to capture a recombinant human IL-23R/Fc fusion protein (R&D Systems). A low-density receptor surface, less than 200 RU, was used for all of the analyses. ATRIMER™ polypeptide complex dilutions (1-500 nM) were injected over the IL-23R surface at 30 μl/min and kinetic constants were derived from the sensorgram data using the Biaevaluation software (version 3.1, GE Healthcare). Data collection was 3 minutes for the association and 5 minutes for dissociation. The anti-human IgG surface was regenerated with a 30s pulse of 3M magnesium chloride. All sensorgrams were double-referenced against an activated and blocked flow-cell as well as buffer injections.
Background: SPR reads the build-up and loss of mass on a sensor chip optically.
B1: the Ka is 2.1e+08 M⁻¹, the Kd was 4.76 nM, the koff turned out to be 0.000751 s⁻¹ and the kon was 158000 M⁻¹ s⁻¹.

For the molecule B2, the Ka was found to be 1.94e+08 M⁻¹, the Kd is 5.15 nM, the off-rate (koff) stood at 0.000478 s⁻¹ and the on-rate constant (kon) was determined as 92800 M⁻¹ s⁻¹.

Consider B3, for which the Ka amounted to 1.24e+08 M⁻¹, the Kd is 8.08 nM, the koff turned out to be 0.000409 s⁻¹ and the kon is 50600 M⁻¹ s⁻¹.

Take B4: the Ka was found to be 1.2e+08 M⁻¹, the Kd turned out to be 8.34 nM, the koff is 0.000483 s⁻¹ and the kon was 57900 M⁻¹ s⁻¹.

For B5, the Ka came out at 2.19e+08 M⁻¹, the Kd turned out to be 4.57 nM, the koff was found to be 0.0007 s⁻¹ and the on-rate (kon) was found to be 153000 M⁻¹ s⁻¹.

On to B6, for which the Ka is 4.47e+08 M⁻¹, the equilibrium dissociation constant (Kd) stood at 2.24 nM, the koff stood at 0.000545 s⁻¹ and the kon was 244000 M⁻¹ s⁻¹.

As to B7, the Ka was found to be 6.76e+06 M⁻¹, the Kd amounted to 148 nM, the koff turned out to be 0.00419 s⁻¹ and the kon worked out at 28300 M⁻¹ s⁻¹.

As to B8, the Ka was determined as 5.39e+06 M⁻¹, the Kd amounted to 186 nM, the koff was determined as 0.00741 s⁻¹ and the kon was 39900 M⁻¹ s⁻¹.

With B9, the Ka amounted to 5.18e+06 M⁻¹, the Kd amounted to 193 nM, the koff amounted to 0.0229 s⁻¹ and the kon is 118000 M⁻¹ s⁻¹.

Turning to B10, the Ka worked out at 4.11e+07 M⁻¹, the Kd was 24.3 nM, the koff amounted to 0.00415 s⁻¹ and the kon worked out at 170000 M⁻¹ s⁻¹.

With B11, the Ka amounted to 9.29e+06 M⁻¹, the Kd stood at 108 nM, the koff was 0.0041 s⁻¹ and the kon is 38100 M⁻¹ s⁻¹.

Consider B12, for which the Ka stood at 1.83e+07 M⁻¹, the dissociation constant Kd turned out to be 54 nM, the koff came out at 0.00783 s⁻¹ and the kon worked out at 143000 M⁻¹ s⁻¹.

As for B13, the Ka was 7.09e+06 M⁻¹, the Kd was found to be 141 nM, the koff is 0.00757 s⁻¹ and the kon turned out to be 53700 M⁻¹ s⁻¹.

With B14, the Ka came out at 2.82e+06 M⁻¹, the equilibrium dissociation constant (Kd) worked out at 355 nM, the koff is 0.0161 s⁻¹ and the kon is 45400 M⁻¹ s⁻¹.

Regarding B15, the Ka was 4.12e+06 M⁻¹, the Kd was determined as 243 nM, the koff stood at 0.00571 s⁻¹ and the kon worked out at 23500 M⁻¹ s⁻¹.
